In PMC8271027:
Blank lines part the entries; values can stand above or below the substance they belong to.

What was measured:
A*02:01/photoKV9 (human) [1] = target: A*02:01/photoKV9 (human)
A*03:01/photoKK9 (human) [2] = target: A*03:01/photoKK9 (human)
B*27:05/photoRL9 (human) [3] = target: B*27:05/photoRL9 (human)
B*27:09/photoRL9 (human) [4] = target: B*27:09/photoRL9 (human)
A*03:01/photoKK9 (human) [5] = target: A*03:01/photoKK9 (human); remark: listed apart in the source
A*03:01/photoKK9 (human) [6] = target: A*03:01/photoKK9 (human); remark: listed apart in the source
B*27:05/photoRL9 (human) [7] = target: B*27:05/photoRL9 (human); remark: listed apart in the source
B*27:09/photoRL9 (human) [8] = target: B*27:09/photoRL9 (human); remark: listed apart in the source
A*03:01/photoKK9 (human) [9] = target: A*03:01/photoKK9 (human); remark: listed apart in the source
B*27:09/photoRL9 (human) [10] = target: B*27:09/photoRL9 (human); remark: listed apart in the source
A*02:01/photoKV9 (human) [11] = target: A*02:01/photoKV9 (human); remark: listed apart in the source
A*03:01/photoKK9 (human) [12] = target: A*03:01/photoKK9 (human); remark: listed apart in the source
B*27:05/photoRL9 (human) [13] = target: B*27:05/photoRL9 (human); remark: listed apart in the source
B*27:09/photoRL9 (human) [14] = target: B*27:09/photoRL9 (human); remark: listed apart in the source

Substance: ERp57-Tapasin conjugate (wild-type) (from UniProt O15533 21-398; P30101 25-504) (complex)
fold increase of the peptide exchange rate (observed Kon of FITC-GV9, fluorescence polarisation) of 500 nM UV-exposed A*02:01/photoKV9 with equimolar ERp57-Tsn^WT against none (A*02:01/photoKV9 (human) [1]): 1.31 fold
fold increase of the peptide exchange rate (observed Kon of FITC-KK9, fluorescence polarisation) of 500 nM UV-exposed A*03:01/photoKK9 with equimolar ERp57-Tsn^WT against none (A*03:01/photoKK9 (human) [2]): 10.9 fold
fold increase of the peptide exchange rate (observed Kon of FITC-RL9, fluorescence polarisation) of 500 nM UV-exposed B*27:05/photoRL9 with equimolar ERp57-Tsn^WT against none (B*27:05/photoRL9 (human) [3]): 5.83 fold
fold increase of the peptide exchange rate (observed Kon of FITC-RL9, fluorescence polarisation) of 500 nM UV-exposed B*27:09/photoRL9 with equimolar ERp57-Tsn^WT against none (B*27:09/photoRL9 (human) [4]): 3.83 fold

Substance: TAPBPR (TAP-binding protein-related protein) (from UniProt Q9BX59 19-405) (natural protein)
fold increase of the peptide exchange rate (observed Kon of FITC-GV9, fluorescence polarisation) of 500 nM UV-exposed A*02:01/photoKV9 with equimolar TAPBPR against none (A*02:01/photoKV9 (human) [11]): 30.9 fold
fold increase of the peptide exchange rate (observed Kon of FITC-KK9, fluorescence polarisation) of 500 nM UV-exposed A*03:01/photoKK9 with equimolar TAPBPR against none (A*03:01/photoKK9 (human) [12]): 34.3 fold
fold increase of the peptide exchange rate (observed Kon of FITC-RL9, fluorescence polarisation) of 500 nM UV-exposed B*27:05/photoRL9 with equimolar TAPBPR against none (B*27:05/photoRL9 (human) [13]): 1.48 fold
fold increase of the peptide exchange rate (observed Kon of FITC-RL9, fluorescence polarisation) of 500 nM UV-exposed B*27:09/photoRL9 with equimolar TAPBPR against none (B*27:09/photoRL9 (human) [14]): 3.13 fold

Now from value to substance:

relative catalytic activity in peptide exchange; UV-exposed A*03:01/photoKK9, FITC-KK9 (second printing, other number) (A*03:01/photoKK9 (human) [5]): 0.73 of WT
relative catalytic activity in peptide exchange, (Kon mutant - Kon noTsn)/(Kon WT - Kon noTsn); UV-exposed A*03:01/photoKK9, FITC-KK9 (A*03:01/photoKK9 (human) [6]): 0.77 of WT
relative catalytic activity in peptide exchange, (Kon mutant - Kon noTsn)/(Kon WT - Kon noTsn); UV-exposed B*27:05/photoRL9, FITC-RL9 (B*27:05/photoRL9 (human) [7]): 0.86 of WT
relative catalytic activity in peptide exchange, (Kon mutant - Kon noTsn)/(Kon WT - Kon noTsn); UV-exposed B*27:09/photoRL9, FITC-IF9 (B*27:09/photoRL9 (human) [8]): 0.95 of WT
Substance: ERp57-Tsn^K16G (from UniProt O15533 21-398; P30101 25-504) (complex)

relative catalytic activity in peptide exchange against ERp57-Tsn^WT; UV-exposed A*03:01/photoKK9, FITC-KK9 (A*03:01/photoKK9 (human) [9]): 0.93 of WT
relative catalytic activity in peptide exchange against ERp57-Tsn^WT; UV-exposed B*27:09/photoRL9, FITC-IF9 (B*27:09/photoRL9 (human) [10]): 1.26 of WT
Substance: ERp57-Tsn^K16L (from UniProt O15533 21-398; P30101 25-504) (complex)

relative catalytic activity in peptide exchange, (Kon mutant - Kon noTsn)/(Kon WT - Kon noTsn); UV-exposed A*03:01/photoKK9, FITC-KK9 (A*03:01/photoKK9 (human) [6]): 0.36 of WT
relative catalytic activity in peptide exchange, (Kon mutant - Kon noTsn)/(Kon WT - Kon noTsn); UV-exposed B*27:05/photoRL9, FITC-RL9 (B*27:05/photoRL9 (human) [7]): 0.05 of WT
relative catalytic activity in peptide exchange, (Kon mutant - Kon noTsn)/(Kon WT - Kon noTsn); UV-exposed B*27:09/photoRL9, FITC-IF9 (B*27:09/photoRL9 (human) [8]): 0.04 of WT
Substance: ERp57-Tsn^L18G (from UniProt O15533 21-398; P30101 25-504) (complex)
